The nature of series [1]: folding stability dG unfold from trypsin proteolysis; higher = more stable. Summed up: (§1)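 Only designs with AlphaFold2 dimer inter-PAE above 15 were retained; each was a mini-protein under 80 residues with no cysteine, in a PA-tagged cDNA display construct. After digestion with trypsin and chymotrypsin and sequencing, K50 was inferred by Bayesian fitting of counts, and unfolding free energy was derived per protease or combined against a sequence-predicted unfolded-state K50 and a shared folded-state K50.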

Series [2] is described as follows: folding stability dG unfold (combined trypsin and chymotrypsin); higher = more stable. The essentials: as §1
A short description of series [3]: folding stability dG unfold from chymotrypsin proteolysis; higher = more stable. Summed up:
as §1

± gives the half width of the 95% confidence interval.

Turning to “SAGGSSVTTTVSEETLPDGLRLLTTTTTTTTVPGKPDLRITTVTTTALDPVTGETTAVGTSTTVVAPSAGGS [r8_65_JUSTAS]”, the “folding stability dG unfold” value in series [1] came out at 0.311 ± 0.038 kcal/mol; in series [2], 0.63 ± 0.086 kcal/mol; in series [3], 0.796 ± 0.027 kcal/mol.
Consider “SAGGSSYSVAQSPGPARLYSVPQPDGRVVEVDVEELPGGLLRVRVPDDPVPRLFPASLSLADIVSLSAGGSA [r2_338_JUSTAS]”, for which the “folding stability dG unfold” value stood at 0.644 ± 0.02 kcal/mol in series [1], 0.866 ± 0.032 kcal/mol in series [2] and 0.933 ± 0.046 kcal/mol in series [3].
Turning to “SAGGSTIENPNGWRIEIDIIPIKVVYRKDPNGKPKEPVAPPVWIIHIKIEFPDKNGEKKEATFMLFSAGGSA [r2_218_TrROS]”, the entries for the “folding stability dG unfold” value in series [1], in series [2] and in series [3] were 2.62 ± 0.069 kcal/mol, 4.06 ± 0.13 kcal/mol and 4.61 ± 0.056 kcal/mol, respectively.
“SAGGSTLEEIKAAVIKAAEAGEKEAEIEAPLPDGGKLRILKGGVIEFIPEDGVPKRLKISVSEIKVSAGGSA [r2_97_TrMRF]”: the “folding stability dG unfold” value in series [1] is -1.2 ± 0.75 kcal/mol; in series [2] it was 0.0476 ± 0.26 kcal/mol; in series [3], 0.451 ± 0.36 kcal/mol.
As to “SAGGSTVAKKTTEKDPNSDTTTVTITFPETGVKLTVTVPPGGETTVTLNNGSPPTTLTLPLSVLKLLSAGGS [r8_238_JUSTAS]”, the entries for the “folding stability dG unfold” value in series [1], in series [2] and in series [3] were 0.192 ± 0.077 kcal/mol, 0.612 ± 0.077 kcal/mol and 0.87 ± 0.067 kcal/mol, respectively.
For the sequence “SAGGSVDVSYDPSTGVVTVTIPSPTGSIGEEEVERVARELKEKYPNVTVSFTPSPGPAVTVTITIPGGSAGG [r13_291_JUSTAS]”, the results for the “folding stability dG unfold” value in series [1], in series [2] and in series [3] were 1.71 ± 0.07 kcal/mol, 2.08 ± 0.074 kcal/mol and 2.24 ± 0.042 kcal/mol, respectively.
For “SAGGSVEEIAERLAKELAPPDERVEVEVEEIVTDPVVGKIKEVKIKATIYPPDGTTRTVEYTIPYDELSAGG [r13_215_JUSTAS]”, the entries for the “folding stability dG unfold” value in series [1], in series [2] and in series [3] were 0.407 ± 0.029 kcal/mol, 0.612 ± 0.056 kcal/mol and 0.704 ± 0.028 kcal/mol, respectively.
For “SAGGSVEVTKTESKGPGGTVTVEALKTVTKFDEKGNPVKEEEVRITRTETYDPNTGKVTTTTTVEGSAGGSA [r2_220_JUSTAS]”, in that order: -0.0891 ± 0.061 kcal/mol, 0.487 ± 0.067 kcal/mol and 0.709 ± 0.018 kcal/mol.
On to “SAGGSVFESEKDLRVEVYKIKVGTTLGKEKNGKPKKPKFKEKEVLVVKVEVPLEDGTTLSAEFTFGSAGGSA [r2_218_TrMRF]”, for which the results for the “folding stability dG unfold” value in series [1], in series [2] and in series [3] were 1.25 ± 0.13 kcal/mol, 2.52 ± 0.26 kcal/mol and 3.24 ± 0.073 kcal/mol, respectively.
For the sequence “SAGGSVKQIALRIARDMGYPNVKVEEIPIEKTPNGWVQIPITVEHPKDGKPIGPFQIHIRPGDPIVSAGGSA [r2_137_TrROS]”, the “folding stability dG unfold” value in series [1] came out at 1.17 ± 0.24 kcal/mol; in series [2], 0.731 ± 0.29 kcal/mol; in series [3], 0.602 ± 0.27 kcal/mol.
Regarding “SAGGSVPERAKVVTLVLRFEEPESLGIPLLERLLRELGFPDAVLGEVRIEPLPDGSVVAVVPLLVPSAGGSA [r2_346_TrMRF]”, the “folding stability dG unfold” value in series [1] was 2.42 ± 0.041 kcal/mol; in series [2] it was 2.91 ± 0.059 kcal/mol; in series [3], 3.196 ± 0.02 kcal/mol.
For the sequence “SAGGSVTLSAEFTLPDGSRVRLTVEVLPDGTLRVSAEVEAVPLVPPVRVSRLPDGSLVSDPLGVPLVLSAGG [r13_151_TrMRF]”, the figures for the “folding stability dG unfold” value in series [1], in series [2] and in series [3] were 1.82 ± 0.046 kcal/mol, 1.57 ± 0.15 kcal/mol and 1.31 ± 0.11 kcal/mol, respectively.
As for “SAGGSWRVSVQFPDGKKIKIPEEPIQKIIQEYGIPPDPGDPERMVERIANRIADKYGYPVKNIEIDSAGGSA [r2_83_TrROS]”, the figures for the “folding stability dG unfold” value in series [1], in series [2] and in series [3] were -0.377 ± 0.42 kcal/mol, 0.0663 ± 0.15 kcal/mol and 0.385 ± 0.13 kcal/mol, respectively.
In the same order, the values of “SAGGSWTIDIDPEKVKEVEHKRNPNGMNEHRLELPNKNGKKREVKIPMGMKSPEDALDEIRELLGKSAGGSA [r2_347_TrROS]” are 0.167 ± 0.25 kcal/mol, 0.331 ± 0.39 kcal/mol and 0.663 ± 0.32 kcal/mol.
On to “SAGGTAEEIVEALKEAGIPVLSIEPNSDGTYTITVGGPDGTPFTIEISSANPADLAALKEAIPEEVSSAGGS [r16_821_TrMRF]”, for which the “folding stability dG unfold” value in series [1] was determined as 3.35 ± 0.22 kcal/mol; in series [2], 3.86 ± 0.12 kcal/mol; in series [3] it was 4.01 ± 0.072 kcal/mol.
On to “SAGGTIFIPWEEAEEFIENAFENGEDIEIEFFLDDGWWYKFTITGPDIDLRVVEVVPMPPPPEDPGKKSAGG [r13_839_TrROS]”, for which the entries for the “folding stability dG unfold” value in series [1], in series [2] and in series [3] were 0.836 ± 0.056 kcal/mol, 2.34 ± 0.11 kcal/mol and 2.82 ± 0.042 kcal/mol, respectively.
In the same order, the values of “SAGGTIYIFIPGLTAEEILKFIAEEFPGHENVTIFWPKGYYVKITVDNGNIKIDKVQPMRPMPPGDPSAGGS [r8_225_TrROS]” are 2.52 ± 0.073 kcal/mol, 2.99 ± 0.084 kcal/mol and 3.31 ± 0.026 kcal/mol.
Regarding “SAGGTKTINIKNMPPNDPERMVRTARHLLKELKQKGPGKTITIHMDNPWAREVAEYLKKEGIPIEVHSAGGS [r16_450_TrROS]”, the “folding stability dG unfold” value in series [1] amounted to 0.581 ± 0.17 kcal/mol; in series [2] it was 0.947 ± 0.14 kcal/mol; in series [3], 1.09 ± 0.15 kcal/mol.
As for “SAGGTLKVTEEEVSESEFESPGLPLRRTTTTYTLVDPVTGKPVPTSKKVTVETLETPEGRVLETVVTSSAGG [r13_24_JUSTAS]”, the “folding stability dG unfold” value in series [1] is -0.45 ± 0.24 kcal/mol; in series [2], -0.0697 ± 0.13 kcal/mol; in series [3], 0.0434 ± 0.14 kcal/mol.
On to “SAGGTRTIWFPVDDIREALPPDNIKKVEVEPVGPENNWYKVTIEFPDYKIEIQYYPEEPGMFMVTITDSAGG [r13_942_TrROS]”, for which the “folding stability dG unfold” value amounted to 0.791 ± 0.085 kcal/mol in series [1], 2.13 ± 0.29 kcal/mol in series [2] and 2.71 ± 0.043 kcal/mol in series [3].
Take “SAGGTVEEIKEKLEEAGWEVVKVEKKEDGSITVTVRRKDGKELKIEIDLKNEEVRKALAELLPEEELSAGGS [r16_821_TrROS_Hall]”: the “folding stability dG unfold” value was 2.42 ± 0.19 kcal/mol in series [1], 2.95 ± 0.15 kcal/mol in series [2] and 3.22 ± 0.13 kcal/mol in series [3].
Take “SAGGTVTLTLELTVKVKRKDGKTETKKVTLTITVEVKEGETVYTPDGKKIKPGKSAEELAKELLKKLSAGGS [r16_440_TrROS_Hall]”: the “folding stability dG unfold” value was 1.17 ± 0.089 kcal/mol in series [1], 1.27 ± 0.32 kcal/mol in series [2] and 1.28 ± 0.12 kcal/mol in series [3].
As for “SAGGTVTTEEVDDATYITVTKPSGETLTITAPALPDDTYLVTVYDPKTGKSTTKTVSSLDEAIKLLGSAGGS [r8_230_JUSTAS]”, the “folding stability dG unfold” value in series [1] was 2.2 ± 0.076 kcal/mol; in series [2], 2.08 ± 0.098 kcal/mol; in series [3] it was 1.83 ± 0.019 kcal/mol.
In the case of “SAGGVIMIPADEILDMIEQNPDEPKTIFARPNNRMVMFTLKIDPDKPDNIEIDNVWRYDPNGKGEHLPSAGG [r13_481_TrROS]”, the “folding stability dG unfold” value in series [1] was -0.526 ± 0.47 kcal/mol; in series [2], -0.365 ± 0.22 kcal/mol; in series [3], -0.475 ± 0.31 kcal/mol.
Regarding “SAGGVITAEQLRDLVKTLPPDYTIRVKVYYSTSTEEYTITPDNPIKFPPNAPTETITRIEVVEISPDSAGGS [r16_97_TrMRF]”, the results for the “folding stability dG unfold” value in series [1], in series [2] and in series [3] were 3.87 ± 0.088 kcal/mol, 4.33 ± 0.068 kcal/mol and 4.43 ± 0.045 kcal/mol, respectively.
For the sequence “SAGGVLPSDPVTVTVTIPVPAANAETDGRLPPQPQTINLEIGGPSEEAIRALLEALFPPGTEYEILLSAGGS [r16_282_JUSTAS]”, the “folding stability dG unfold” value in series [1] was determined as 1.77 ± 0.064 kcal/mol; in series [2], 1.32 ± 0.06 kcal/mol; in series [3], 0.691 ± 0.034 kcal/mol.
With “SAGGVPVPPEVEYPISPEAVELAEKLAPELGAKNFKVTVVSVEPGYITVEITLPDTGKTVTVTIPLGSAGGS [r16_281_JUSTAS]”, the “folding stability dG unfold” value in series [1] was determined as 1.5 ± 0.041 kcal/mol; in series [2] it was 1.82 ± 0.053 kcal/mol; in series [3], 1.987 ± 0.015 kcal/mol.
For “SAGGVRYRNPLTGVEIPPDATEEERAAIARAVAKPVVLPVTVPVYVEEGDVVVPVERTFHVPLGPDGSAGGS [r16_387_TrMRF]”, in that order: 0.22 ± 0.085 kcal/mol, 0.206 ± 0.083 kcal/mol and 0.0948 ± 0.12 kcal/mol.
Turning to “SAGGVTVSLSDPLSGNITTVPVAPNSTVTVTTSASLGGPNYTITTTVTVTLNGSTPVFTITSTVTPLSSAGG [r19_331_JUSTAS]”, the figures for the “folding stability dG unfold” value in series [1], in series [2] and in series [3] were 3.08 ± 0.16 kcal/mol, 3.41 ± 0.17 kcal/mol and 3.54 ± 0.071 kcal/mol, respectively.
For “SAGGVVEVEVPDLSLEEALERVREEYPDVPEFTLTLPSGERVEFRVEGDRVEVVRREPLGPRPPELESAGGS [r8_225_JUSTAS]”, in that order: 1.63 ± 0.1 kcal/mol, 1.54 ± 0.066 kcal/mol and 1.51 ± 0.029 kcal/mol.
For the sequence “SAGGVVTFLPGNLIKTTYFDPEKGTRTETLYYVPPDGTTTKLKTTVTPIPPTPLERPFFFGPDDVPVLSAGG [r13_646_JUSTAS]”, the “folding stability dG unfold” value worked out at 0.517 ± 0.059 kcal/mol in series [1], 0.474 ± 0.15 kcal/mol in series [2] and 0.306 ± 0.21 kcal/mol in series [3].
For “SAGGVVYYATFTIYDPKRKLPNGELAYEETPIYKKFDPKEIEKFIKELKDKLKKEGRKIKAEITKVLSAGGS [r8_10_JUSTAS]”, the “folding stability dG unfold” value was found to be 1.28 ± 0.15 kcal/mol in series [1], 1.45 ± 0.4 kcal/mol in series [2] and 1.77 ± 0.29 kcal/mol in series [3].
For “SAGGVWIEITFLMPAEQLLNFIKNLAEEFGYQVNIDVKIQPYPNGPMVTHEIEIKPLPPKVPEEDQESAGGS [r16_262_TrROS]”, in that order: 2.5 ± 0.13 kcal/mol, 3.6 ± 0.16 kcal/mol and 3.99 ± 0.1 kcal/mol.
With “SAGGWFTWDIPVKADDPKEAVDYAKEQIKNIMREHHPGMPPGMKIDDIKVEPPPNGWYWVKITIEIDPPSAG [r5_320_TrROS]”, the “folding stability dG unfold” value was determined as 1.83 ± 0.083 kcal/mol in series [1], 2.29 ± 0.15 kcal/mol in series [2] and 2.59 ± 0.083 kcal/mol in series [3].
Take “SAGGWQKVEFMIEIPGGGSLDQAKDEVEEFADYLRKKAGFKDVDVDVQVDPDGWVYVMVEIEVPPNASAGGS [r8_3_TrROS]”: the “folding stability dG unfold” value in series [1] turned out to be 1.06 ± 0.04 kcal/mol; in series [2] it was 1.87 ± 0.062 kcal/mol; in series [3], 2.24 ± 0.042 kcal/mol.
For the sequence “SAGGWYIRIKEIERNNDGVNIDIQIPDPDDPEFFENIAENLAQKLGMPKENIKIRIEPTPMPPDPEEPSAGG [r13_430_TrROS]”, the “folding stability dG unfold” value in series [1] was found to be 0.248 ± 0.13 kcal/mol; in series [2], 0.247 ± 0.23 kcal/mol; in series [3], 0.0789 ± 0.35 kcal/mol.

The record behind these values is the supplement of paper PMC12764529.
